Experimental data taken from paper doi:10.1101/2025.07.31.667833.

Target: Spef1 K204Q/K206Q/R207Q/R215Q/R218Q mutant (full-length) (mouse) (UniProt Q99JL1)
Experiment: SEC-MALS

stoichiometry N: 2
Substance: Spef1 K204Q/K206Q/R207Q/R215Q/R218Q mutant (full-length) (from UniProt Q99JL1 1-234) (natural protein)
